The source of these data is US20190233493A1 (Sanofi, published 2019).

*1 amine or outer side, *2 acyl side, *3 side chain or, on linkers, in order; H or OH if unused. Primed or numbered codes have the meaning given here. Side-chain parts run from the residue outwards. [ ]: non-standard residue; d: D form. The star is where a group is joined. PEG2DGA = 2-[2-[3-[2-[2-(3-aminopropoxy)ethoxy]ethoxy]propylamino-2-oxo-ethoxy]acetyl; TTDS″ = 4-[3-[2-[2-(3-aminopropoxy)ethoxy]ethoxy]propylamino]-4-oxo-butanoyl; TTDS(3) = O=C(CCC(=O)[*:2])NCCCOCCOCCOCCCN[*:1]; Trp(5-OH) = N[C@@H](Cc1c[nH]c2ccc(O)cc12)C(=O)O; TtdDga = O=C(COCC(=O)[*:2])NCCCOCCOCCOCCCN[*:1]; Docosanoyl = CCCCCCCCCCCCCCCCCCCCCC(=O)*; Arachidoyl = CCCCCCCCCCCCCCCCCCCC(=O)*; Heptadecanoyl = CCCCCCCCCCCCCCCCC(=O)*; γGlu = O=C(O)[C@H](CCC(=O)[*:2])N[*:1]; Pentadecanoyl = CCCCCCCCCCCCCCC(=O)*; Stearoyl = CCCCCCCCCCCCCCCCCC(=O)*; Palmitoyl = CCCCCCCCCCCCCCCC(=O)*; Myristoyl = CCCCCCCCCCCCCC(=O)*; αMeK = C[C@](N)(CCCCN)C(=O)O; Lauroyl = CCCCCCCCCCCC(=O)*; Nle = CCCC[C@H](N)C(=O)O; PEG2′ = PEG2 spacer unit; PEG2″ = not defined here; Aib = CC(C)(N)C(=O)O

In this experiment the target is T1, RXFP1 receptor (UniProt Q9HBX9 1-757, limits assumed).
T1 sequence (looked up): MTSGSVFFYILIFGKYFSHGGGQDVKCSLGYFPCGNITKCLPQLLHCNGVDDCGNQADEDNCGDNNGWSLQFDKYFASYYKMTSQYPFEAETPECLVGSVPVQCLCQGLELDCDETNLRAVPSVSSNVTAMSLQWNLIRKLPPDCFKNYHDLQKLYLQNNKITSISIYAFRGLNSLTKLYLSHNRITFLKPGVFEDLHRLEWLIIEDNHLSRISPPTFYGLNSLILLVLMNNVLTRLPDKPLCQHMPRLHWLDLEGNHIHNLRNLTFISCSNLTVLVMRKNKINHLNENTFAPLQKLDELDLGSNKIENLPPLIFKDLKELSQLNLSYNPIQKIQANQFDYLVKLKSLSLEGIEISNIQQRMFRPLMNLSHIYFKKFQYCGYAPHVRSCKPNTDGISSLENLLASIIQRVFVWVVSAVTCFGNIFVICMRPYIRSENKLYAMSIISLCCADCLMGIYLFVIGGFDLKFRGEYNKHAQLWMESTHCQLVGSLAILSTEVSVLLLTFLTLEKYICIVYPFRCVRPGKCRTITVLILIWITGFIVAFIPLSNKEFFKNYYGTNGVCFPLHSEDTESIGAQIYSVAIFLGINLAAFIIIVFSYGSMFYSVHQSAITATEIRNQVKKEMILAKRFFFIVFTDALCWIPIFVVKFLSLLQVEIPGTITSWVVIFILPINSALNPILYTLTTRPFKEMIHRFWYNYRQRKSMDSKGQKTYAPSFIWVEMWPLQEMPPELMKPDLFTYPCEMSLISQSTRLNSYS
Kind of experiment: cell-based or functional assay.

B1: peptide of SEQ ID NO: 175 (peptide)
peptide: Ac-LEGREKVRAK(Ac)I[Aib][Aib]EG[Nle]STWS[Aib]RKK(Ac)[TtdDga]K([γGlu-γGlu-γGlu-Palmitoyl])-NH2
SMILES: CCCCCCCCCCCCCCCC(=O)N[C@@H](CCC(=O)N[C@@H](CCC(=O)N[C@@H](CCC(=O)NCCCC[C@H](NC(=O)COCC(=O)NCCCOCCOCCOCCCNC(=O)[C@H](CCCCNC(C)=O)NC(=O)[C@H](CCCCN)NC(=O)[C@H](CCCNC(=N)N)NC(=O)C(C)(C)NC(=O)[C@H](CO)NC(=O)[C@H](Cc1c[nH]c2ccccc12)NC(=O)[C@@H](NC(=O)[C@H](CO)NC(=O)[C@H](CCCC)NC(=O)CNC(=O)[C@H](CCC(=O)O)NC(=O)C(C)(C)NC(=O)C(C)(C)NC(=O)[C@@H](NC(=O)[C@H](CCCCNC(C)=O)NC(=O)[C@H](C)NC(=O)[C@H](CCCNC(=N)N)NC(=O)[C@@H](NC(=O)[C@H](CCCCN)NC(=O)[C@H](CCC(=O)O)NC(=O)[C@H](CCCNC(=N)N)NC(=O)CNC(=O)[C@H](CCC(=O)O)NC(=O)[C@H](CC(C)C)NC(C)=O)C(C)C)[C@@H](C)CC)[C@@H](C)O)C(N)=O)C(=O)O)C(=O)O)C(=O)O
In the case of B1, the “EC50 (nM), OVCAR 5 cells (cAMP)” value came to 2.21 nM and the “EMax, OVCAR 5 cells (cAMP)” value is 87%. For Ac-LEGREKVRAK(Ac)I[Aib][Aib]EG[Nle]STFS[αMeK]RAK(Ac)[PEG2′][PEG2′][PEG2′][PEG2′]K([γGlu-γGlu-γGlu-γGlu-Pentadecanoyl])-NH2 [peptide of SEQ ID NO: 167], in that order: 0.05 nM and 93%. As for Ac-LEGREKVRAK(Ac)I[Aib][Aib]EG[Nle]ST[Trp(5-OH)]S[Aib]RKK(Ac)K([PEG2′-PEG2′-PEG2′-γGlu-γGlu-γGlu-Stearoyl])-NH2 [peptide of SEQ ID NO: 158], the “EC50 (nM), OVCAR 5 cells (cAMP)” value amounted to 0.14 nM and the “EMax, OVCAR 5 cells (cAMP)” value turned out to be 90%. In the case of Ac-LEGREKVRAK(Ac)I[Aib][Aib]EG[Nle]STWS[αMeK]RKK(Ac)[PEG2′][PEG2′][PEG2′]K([γGlu-γGlu-γGlu-γGlu-Palmitoyl])-NH2 [peptide of SEQ ID NO: 17], the “EC50 (nM), OVCAR 5 cells (cAMP)” value was 0.17 nM and the “EMax, OVCAR 5 cells (cAMP)” value was determined as 95%.

B2: peptide of SEQ ID NO: 160 (peptide)
peptide: Ac-LEGREKVRAK(Ac)I[Aib][Aib]EG[Nle]STFSXRAK(Ac)[PEG2′][PEG2′][PEG2′][PEG2′][γGlu][γGlu]K([γGlu-γGlu-Palmitoyl])-NH2
modifications: not fully specified (some residues); printed as Ac-L-E-G-R-E-K-V-R-A-K(Ac)-I-Aib-Aib-E-G-Nle-S-T-F-S-Mly-R-A-K(Ac)-PEG2-PEG2-PEG2-PEG2-gE-gE-K(gE-gE-Palm)-NH2
As to B2, the “EC50 (nM), OVCAR 5 cells (cAMP)” value turned out to be 0.28 nM and the “EMax, OVCAR 5 cells (cAMP)” value was found to be 86%. With Ac-LEGREKVRAQI[Aib][Aib]EG[Nle]STWS[Aib]RKKK([PEG2′-PEG2′-PEG2′-γGlu-γGlu-γGlu-Stearoyl])-NH2 [peptide of SEQ ID NO: 174], the “EMax, OVCAR 5 cells (cAMP)” value was 88%. For the molecule Ac-LEGREKVRAK(Ac)I[Aib][Aib]EG[Nle]STWS[Aib]RKK(Ac)K([PEG2′-PEG2′-PEG2′-γGlu-γGlu-γGlu-Heptadecanoyl])-NH2 [peptide of SEQ ID NO: 164], the “EC50 (nM), OVCAR 5 cells (cAMP)” value amounted to 0.79 nM and the “EMax, OVCAR 5 cells (cAMP)” value came out at 93%. On to Ac-LEGREKVRAK(Ac)I[Aib][Aib]EG[Nle]STWS[Aib]RKK(Ac)K([PEG2′-PEG2′-PEG2′-γGlu-γGlu-γGlu-Arachidoyl])-NH2 [peptide of SEQ ID NO: 171], for which the “EC50 (nM), OVCAR 5 cells (cAMP)” value was found to be 0.18 nM and the “EMax, OVCAR 5 cells (cAMP)” value amounted to 83%.

B3: peptide of SEQ ID NO: 168 (peptide)
peptide: Ac-LEGREKVRAK(Ac)I[Aib][Aib]EG[Nle]STFSXRAK(Ac)[PEG2′][PEG2′][PEG2′][PEG2′][γGlu][γGlu]K([γGlu-γGlu-Pentadecanoyl])-NH2
modifications: not fully specified (some residues); printed as Ac-L-E-G-R-E-K-V-R-A-K(Ac)-I-Aib-Aib-E-G-Nle-S-T-F-S-Mly-R-A-K(Ac)-PEG2-PEG2-PEG2-PEG2-gE-gE-K(gE-gE-Penta)-NH2
For the molecule B3, the “EC50 (nM), OVCAR 5 cells (cAMP)” value came out at 0.06 nM and the “EMax, OVCAR 5 cells (cAMP)” value amounted to 91%.

Consider Ac-LEGREKVRAK(Ac)I[Aib][Aib]EG[Nle]STWS[Aib]RKK(Ac)K([PEG2′-PEG2′-γGlu-γGlu-PEG2′-γGlu-Palmitoyl])-NH2 [peptide of SEQ ID NO: 165], for which the “EC50 (nM), OVCAR 5 cells (cAMP)” value worked out at 0.38 nM and the “EMax, OVCAR 5 cells (cAMP)” value worked out at 105%. The corresponding values for Ac-LEGREKVRAK(Ac)I[Aib][Aib]EG[Nle]STWS[Aib]RKK(Ac)K([PEG2′-PEG2′-PEG2′-γGlu-γGlu-γGlu-Docosanoyl])-NH2 [peptide of SEQ ID NO: 173] are 0.19 nM and 85%.

Regarding Ac-LEGREKVRAK(Ac)I[Aib][Aib]EGQSTFS[αMeK]RAK(Ac)[PEG2′][PEG2′][PEG2′][PEG2′]K([γGlu-γGlu-γGlu-γGlu-Lauroyl])-NH2 [peptide of SEQ ID NO: 161], the “EC50 (nM), OVCAR 5 cells (cAMP)” value turned out to be 12.1 nM and the “EMax, OVCAR 5 cells (cAMP)” value amounted to 94%. As for Ac-LEGREKVRAK(Ac)I[Aib][Aib]EGQSTFS[αMeK]RAK(Ac)[PEG2′][PEG2′][PEG2′][PEG2′]K([γGlu-γGlu-γGlu-γGlu-Palmitoyl])-NH2 [peptide of SEQ ID NO: 170], the “EC50 (nM), OVCAR 5 cells (cAMP)” value was 0.01 nM and the “EMax, OVCAR 5 cells (cAMP)” value is 87%. For Ac-LEGREKVRAK(Ac)I[Aib][Aib]EG[Nle]STFS[αMeK]RKK(Ac)[PEG2″][PEG2″][PEG2″][PEG2″][γGlu][γGlu]K([γGlu-γGlu-Palmitoyl])-NH2 [peptide of SEQ ID NO: 159], in that order: 0.02 nM and 88%. As to Ac-LEGREKVRAK(Ac)I[Aib][Aib]EG[Nle]STWS[Aib]RKK(Ac)K([TTDS″-TTDS″-γGlu-γGlu-γGlu-Palmitoyl])-NH2 [peptide of SEQ ID NO: 166], the “EC50 (nM), OVCAR 5 cells (cAMP)” value turned out to be 0.26 nM and the “EMax, OVCAR 5 cells (cAMP)” value was found to be 92%. As to Ac-LEGREKVRAK(Ac)I[Aib][Aib]EG[Nle]STWS[Aib]AAK(Ac)K([PEG2DGA-PEG2DGA-γGlu-γGlu-γGlu-Stearoyl])-NH2 [peptide of SEQ ID NO: 156], the “EC50 (nM), OVCAR 5 cells (cAMP)” value worked out at 0.06 nM and the “EMax, OVCAR 5 cells (cAMP)” value was 90%. Regarding Ac-LEGREKVRAK(Ac)I[Aib][Aib]EG[Nle]STWS[Aib]RKK(Ac)K([PEG2′-PEG2′-PEG2′-γGlu-γGlu-γGlu-Pentadecanoyl])-NH2 [peptide of SEQ ID NO: 163], the “EC50 (nM), OVCAR 5 cells (cAMP)” value came out at 5.3 nM and the “EMax, OVCAR 5 cells (cAMP)” value worked out at 87%. For Ac-LEGREKVRAK(Ac)I[Aib][Aib]EG[Nle]STFS[αMeK]RAK(Ac)[PEG2′][PEG2′][PEG2′][PEG2′]K([γGlu-γGlu-γGlu-γGlu-Myristoyl])-NH2 [peptide of SEQ ID NO: 172], in that order: 0.56 nM and 95%.

B4: peptide of SEQ ID NO: 157 (peptide)
peptide: Ac-LEGREKVRAK(Ac)I[Aib][Aib]EG[Nle]STFS[αMeK]RAK(Ac)[TTDS(3)][TTDS(3)][γGlu][γGlu][γGlu]K([γGlu-Palmitoyl])-NH2
SMILES: CCCCCCCCCCCCCCCC(=O)N[C@@H](CCC(=O)NCCCC[C@H](NC(=O)CC[C@H](NC(=O)CC[C@H](NC(=O)CC[C@H](NC(=O)CCC(=O)NCCCOCCOCCOCCCNC(=O)CCC(=O)NCCCOCCOCCOCCCNC(=O)[C@H](CCCCNC(C)=O)NC(=O)[C@H](C)NC(=O)[C@H](CCCNC(=N)N)NC(=O)[C@](C)(CCCCN)NC(=O)[C@H](CO)NC(=O)[C@H](Cc1ccccc1)NC(=O)[C@@H](NC(=O)[C@H](CO)NC(=O)[C@H](CCCC)NC(=O)CNC(=O)[C@H](CCC(=O)O)NC(=O)C(C)(C)NC(=O)C(C)(C)NC(=O)[C@@H](NC(=O)[C@H](CCCCNC(C)=O)NC(=O)[C@H](C)NC(=O)[C@H](CCCNC(=N)N)NC(=O)[C@@H](NC(=O)[C@H](CCCCN)NC(=O)[C@H](CCC(=O)O)NC(=O)[C@H](CCCNC(=N)N)NC(=O)CNC(=O)[C@H](CCC(=O)O)NC(=O)[C@H](CC(C)C)NC(C)=O)C(C)C)[C@@H](C)CC)[C@@H](C)O)C(=O)O)C(=O)O)C(=O)O)C(N)=O)C(=O)O
As for B4, the “EC50 (nM), OVCAR 5 cells (cAMP)” value is 0.02 nM and the “EMax, OVCAR 5 cells (cAMP)” value was found to be 89%.
